This passage reports Km results from ChEMBL document CHEMBL2074186.

Substrate in this data set: Nc1ccc(C(=O)NCC(=O)O)cc1
Description: cells, lysate or membranes named.

B1: Solute carrier family 22 member 6 (Rattus norvegicus) (protein)
chain: MAFNDLLKQVGGVGRFQLIQVTMVVAPLLLMASHNTLQNFTAAIPPHHCRPPANANLSKDGGLEAWLPLDKQGQPESCLRFTSPQWGPPFYNGTEANGTRVTEPCIDGWVYDNSTFPSTIVTEWNLVCSHRAFRQLAQSLYMVGVLLGAMVFGYLADRLGRRKVLILNYLQTAVSGTCAAYAPNYTVYCVFRLLSGMSLASIAINCMTLNVEWMPIHTRAYVGTLIGYVYSLGQFLLAGIAYAVPHWRHLQLVVSVPFFIAFIYSWFFIESARWYSSSGRLDLTLRALQRVARINGKQEEGAKLSIEVLRTSLQKELTLSKGQASAMELLRCPTLRHLFLCLSMLWFATSFAYYGLVMDLQGFGVSMYLIQVIFGAVDLPAKFVCFLVINSMGRRPAQMASLLLAGICILVNGIIPKSHTIIRTSLAVLGKGCLASSFNCIFLYTGELYPTVIRQTGLGMGSTMARVGSIVSPLVSMTAEFYPSMPLFIFGAVPVVASAVTALLPETLGQPLPDTVQDLKSRSRGKQNQQQQEQQKQMMPLQASTQEKNGL
The Km is the concentration of substrate that gives half-maximal velocity. Regarding B1, the Michaelis-Menten constant (Km) came to 43.2 µM.
